These results are taken from PMC8557471.

The target in the test is A. thaliana DCL1 DSRM1 (A. thaliana). In words: BLI. For orientation: Biolayer interferometry detects binding as a change in optical thickness at a sensor tip.

In turn, “A. thaliana HYL1 DSRM2 (domain or fragment)” gave a fold higher affinity than HYL1 DSRM1 for the same target of 3.4 fold.
